Measurements from patent US20200362024A1, “BIOLOGICAL MATERIALS AND USES THEREOF” (IMPERIAL INNOVATIONS LIMITED, priority 2009, published 2020).

Legend:
[1] = test system: MyD88 deficient mouse embryonic fibroblasts; experiment: Cytokine synthesis in mouse embryonic fibroblasts from MyD88 deficient mice; type: cell-based; conditions: 24 h; FBG 1 μM, PAM3, LPS, TNFα 100 ng/ml, IL-1 5 ng/ml
Description: (§1) Homozygous MyD88 deficient mice on a C57BL/6 background were provided by the Sanger Institute (Cambridge, UK). Age matched congenic inbred wild type C57B/L6 mice were obtained from Charles River (Margate, UK). For isolation of mouse embryo fibroblasts one female aged 8-10 weeks was mated with two males aged 8-10 weeks. For isolation of bone marrow derived macrophages mice were female and between 10-12 weeks of age at the time of experimentation.
MEFs express high levels of mRNA of all 9 murine TLRs and are specifically and highly responsive to TLR ligand activation. […] Fibroblasts were cultured at 2×10^4 cells/well in DMEM containing 10% (v/v) FBS and 100 U/ml penicillin/streptomycin in 96-well tissue culture plates for 24 hours before stimulation.
(§2) Cells were incubated for 24 hours at 37° C. with the indicated doses of tenascin-C and recombinant tenascin-C fragments (1.0 μM-1.0 nM). Cells were also stimulated where indicated with LPS (1 ng/ml for human macrophages, 10 ng/ml for human fibroblasts, RA membrane cells and HEKs, 100 ng/ml for MEFS and BMDMs and 10 ng/ml for HEKS), PAM3 (10 ng/ml for human macrophages, human fibroblasts, and HEKs, 100 ng/ml for MEFs and BMDMs), murine IL-1 (5 ng/ml for MEFS) and murine TNF-α (100 ng/ml for MEFS). Unless specifically stated otherwise rough LPS was used for in vitro studies.
(§3) Supernatants were subsequently examined for the presence of the cytokines TNF-α, IL-6, and IL-8 by enzyme-linked immunosorbent assay (ELISA) according to the manufacturer's instructions. Absorbance was read on a spectrophotometric ELISA plate reader (Labsystems Multiscan Biochromic, Vantaa, Finland) and analyzed using the Ascent software program (Thermo Labsystems, Altrincham, UK).

[2] = test system: MyD88; experiment: FBG induction of IL-6 in RA synovial fibroblasts infected with adenovirus expressing dominant negative MyD88; type: cell-based, human; conditions: FBG 1 μM, 24 h; GFP control virus without effect
Description: Recombinant, replication-deficient adenoviral vectors encoding wild type MyD88 (AdMyD88 wt), dominant-negative forms of MyD88 (AdMyD88dn) and the GFP control (AdGFP) were constructed in-house. A description of the synthesis of these viruses is in Andreakos (2004). All viruses used in this study are E1/E3 deleted, belong to the Ad5 serotype. Viruses were propagated in 293 human embryonic kidney cells, purified by ultracentrifugation through two cesium chloride gradients, and viral titers determined by plaque assay as previously described (Sacre (2007)).
For adenoviral gene transfer experiments, human RA synovial fibroblasts were incubated with adenoviral vectors at a multiplicity of infection of 100, washed after 2 hours, cultured in complete medium for 24 hours, then stimulated for 24 hours, after which time supernatants were collected.
as §3

[3] = test system: TLR2 or TLR4 deficient embryonic fibroblasts and bone marrow derived macrophages; experiment: Cytokine synthesis in embryonic fibroblasts and macrophages from TLR2 or TLR4 deficient mice; type: cell-based, mouse; conditions: 24 h
Description: as §1, with “Homozygous TLR2 and TLR4 deficient mice on a C57BL/6 background (an inbred strain of mice with a black coat) were obtained from B&K Universal (Hull, UK) Hoshino (1999) and Takeuchi (1999). Homozygous” for “Homozygous”
MEFs express high levels of mRNA of all 9 murine TLRs and are specifically and highly responsive to TLR ligand activation. […] MEFs were isolated from d13 embryos harvested from age-matched, pregnant female wild type, TLR2, TLR4 and null mice (as described in Todaro (1963)). Fibroblasts were cultured at 2×10^4 cells/well in DMEM containing 10% (v/v) FBS and 100 U/ml penicillin/streptomycin in 96-well tissue culture plates for 24 hours before stimulation.
BMDMs were derived by aspirating the femurs of age matched female wild type, TLR2 and TLR4 null mice as described in Butler (1999)) and culturing the cells for 7 days in DMEM, 20% (v/v) FBS, 10 ml/L (v/v) antibiotic-antimycotic solution PSA, 50 μM Mercaptoethanol and 10 ng/ml M-CSF. Macrophages were then cultured at 1×10^5 cells/well in DMEM, 20% (v/v) FBS, 10 ml/L (v/v) antibiotic-antimycotic solution PSA, 50 μM β-Mercaptoethanol in 96-well tissue culture plates for 24 hours before stimulation.
as §2, §3

[4] = test system: knee joint of wild type mice; experiment: Intra-articular injection of FBG into the knee joint of wild type mice; type: in vivo
Method: Wild type mice were anesthetized by intraperitoneal injection of 150 μl of Hypnorm diluted 1:10 in sterile water and then injected with 100 ng, 1 or 3 μg FBG in 10 μl of sterile PBS into the right knee joint using a sterile 33-gauge microcannula. Control mice received an injection of 10 μl PBS alone or were not injected.
On days 3 and 7, mice were euthanized, the knee joints were excised and fixed in 10% (volume/volume) buffered formalin, decalcified, with 10% EDTA and processed to paraffin.
Coronal tissue sections (4 μm) were cut at 7 depths throughout the joint; 80 μm apart and stained with hematoxylin and eosin or Safranin-O to assess joint pathology.
Inflammation (the influx of inflammatory cells into synovium (infiltrate) and the joint cavity (exudates), was graded using an arbitrary scale from 0 (no inflammation) to 3 (severe inflammation). Chondrocyte death was determined as the percentage of cartilage area containing empty lacunae in relation to the total area. Cartilage surface erosion was determined as the amount of cartilage lost in relation to the total cartilage area. Bone destruction was determined in 10 different areas of the total knee joint section. Destruction was graded on a scale of 0 (no damage) to 3 (complete loss of bone structure). Histological analysis was performed by an investigator who was blinded to the experimental groups. The mean score for each animal in an experimental group was calculated by averaging the histopathologic scores in at least 5 section depths per joint.

B1: FBG: recombinant fibrinogen-like globe, 227 amino acid globular domain at the C terminal of tenascin-C (protein)
chain: GLLYPFPKDCSQAMLNGDTTSGLYTIYLNGDKAEALEVFCDMTSDGGGWIVFLRRKNGRENFYQNWKAYAAGFGDRREEFWLGLDNLNKITAQGQYELRVDLRDHGETAFAVYDKFSVGDAKTRYKLKVEGYSGTAGDSMAYHNGRSFSTFDKDTDSAITNCALSYKGAFWYRNCHRVNLMGRYGDNNHSQGVNWFHWKGHEHSIQFAEMKLRPSNFRNLEGRRKRA
cytokine synthesis in embryonic fibroblasts with targeted deletion of MyD88 [1]: does not stimulate
induction of IL-6 in synovial fibroblasts expressing dominant negative MyD88 [2]: abolished
cytokine synthesis in cells from TLR2 deficient mice [3]: unaffected
cytokine synthesis in cells from TLR4 deficient mice [3]: does not stimulate
joint histology ([4]; 100 ng FBG intra-articular): No inflammation or proteoglycan loss
joint histology ([4]; 1 μg FBG intra-articular, 3 days): inflammatory cell infiltration (FIG. 6f), mild synovitis, pannus formation (FIG. 6g) and proteoglycan loss (FIG. 6h) was observed
histological quantification: cartilage surface erosion and bone damage ([4]; 1 μg FBG, 3 days (FIG. 6i)): modest amount
histological quantification: cellular infiltrate and exudate and chondrocyte death ([4]; 1 μg FBG, 3 days (FIG. 6i)): high levels
joint histology ([4]; 3 μg FBG intra-articular): A similar response
joint inflammation ([4]; intra-articular 100 ng, 1 or 3 μg): transient and dose dependent stimulation of joint inflammation
